Article PMC8373167 (Advanced Science, 2021)

Columns and labels:
ACE2 [1] = target: T1, ACE2 (Homo sapiens, UniProt Q9BYF1); experiment: SPR; recombinant human ACE2 (50 ug/mL) immobilised on a nanogold sensor chip activated with EDC/NHS; dilutions of peptide flowed at 20 uL/min for 7 min; Nicoya OpenSPR
Target sequence in this assay (Q9BYF1 18-740): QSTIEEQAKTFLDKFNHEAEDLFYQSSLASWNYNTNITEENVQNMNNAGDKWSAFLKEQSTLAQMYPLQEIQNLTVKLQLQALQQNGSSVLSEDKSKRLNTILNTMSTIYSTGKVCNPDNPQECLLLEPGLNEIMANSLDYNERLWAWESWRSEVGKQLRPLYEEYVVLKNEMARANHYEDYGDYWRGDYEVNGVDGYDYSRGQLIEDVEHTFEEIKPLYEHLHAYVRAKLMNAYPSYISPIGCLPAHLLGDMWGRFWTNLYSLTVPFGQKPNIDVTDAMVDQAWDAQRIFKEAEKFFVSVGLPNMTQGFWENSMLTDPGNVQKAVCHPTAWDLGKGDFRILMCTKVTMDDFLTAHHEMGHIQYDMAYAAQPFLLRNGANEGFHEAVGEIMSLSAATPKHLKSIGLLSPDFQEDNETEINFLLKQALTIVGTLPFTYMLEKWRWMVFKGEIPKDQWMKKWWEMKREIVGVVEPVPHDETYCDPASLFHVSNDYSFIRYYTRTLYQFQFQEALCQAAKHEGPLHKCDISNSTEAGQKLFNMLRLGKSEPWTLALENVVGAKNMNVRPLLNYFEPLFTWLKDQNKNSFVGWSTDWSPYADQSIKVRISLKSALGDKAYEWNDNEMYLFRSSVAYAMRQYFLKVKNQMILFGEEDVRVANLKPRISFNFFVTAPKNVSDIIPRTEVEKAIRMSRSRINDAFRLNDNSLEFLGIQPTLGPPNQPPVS

ACE2 [2] = target: T1, ACE2; experiment: biochemical
Target sequence in this assay (Q9BYF1 18-805): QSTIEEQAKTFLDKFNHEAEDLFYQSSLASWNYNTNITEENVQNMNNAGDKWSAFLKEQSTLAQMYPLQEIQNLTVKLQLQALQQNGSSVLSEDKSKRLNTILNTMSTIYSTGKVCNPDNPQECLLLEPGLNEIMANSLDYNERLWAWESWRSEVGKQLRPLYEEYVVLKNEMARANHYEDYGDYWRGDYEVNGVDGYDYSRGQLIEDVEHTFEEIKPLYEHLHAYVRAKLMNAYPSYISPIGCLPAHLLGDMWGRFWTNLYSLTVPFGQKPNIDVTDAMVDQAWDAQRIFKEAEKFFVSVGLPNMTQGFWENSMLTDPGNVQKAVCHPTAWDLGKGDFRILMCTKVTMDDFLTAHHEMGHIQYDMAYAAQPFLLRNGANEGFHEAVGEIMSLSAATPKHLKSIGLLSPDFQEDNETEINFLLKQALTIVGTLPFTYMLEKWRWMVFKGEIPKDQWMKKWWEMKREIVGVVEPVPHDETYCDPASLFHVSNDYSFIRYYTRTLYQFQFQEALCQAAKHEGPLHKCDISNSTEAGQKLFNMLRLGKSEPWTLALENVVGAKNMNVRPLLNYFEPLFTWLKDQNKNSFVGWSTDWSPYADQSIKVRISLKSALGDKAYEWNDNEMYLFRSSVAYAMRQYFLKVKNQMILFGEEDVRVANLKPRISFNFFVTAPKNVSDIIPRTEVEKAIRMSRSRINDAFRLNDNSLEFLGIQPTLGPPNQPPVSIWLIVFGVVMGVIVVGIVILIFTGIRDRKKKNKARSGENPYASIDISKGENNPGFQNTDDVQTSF
Experimental: Briefly, recombinant human ACE2 protein (50 µg mL^−1; BP003061) was immobilized on the surface of the nanogold sensor chip, after the chip was activated by 1‐ethyl‐3‐(3‐dimethylaminopropyl)carbodiimide/N‐hydroxysuccinimide. […] K D, ka and kd were calculated using Trace Drawer Evaluation version 2.0 (Trace Software International, Saint‐Romain, France).

[3] = format: in vivo, mice
Experimental: Supplemental Figure 5. Body weight monitoring following DX600 exposure was conducted in mice for 25 days. The experiment was carried out in 10 mice at 4-weeks of age. The mice were either […]
was repeated on day 0, day 4, day 11, day 18 and day 25, and the weight of the mice was […]
group (n = 5, weight from 26.5 ± 5.2 g to 41.2 ± 3.1 g) and the control group (n = 5, weight from […]

ACE2 [4] = settings: cited from earlier work
clinical = settings: human, in vivo, iv, total radioactivity
[5] = format: physicochemical; settings: 0.01 M PBS, 37 °C, 50 µL tracer in 450 µL PBS, sampled at 1, 2, 4 h; stated within 2 h
Experimental: The solution was analyzed by radio‐HPLC to assess the radiochemical purity. The HPLC was eluted with water‐CH3CN system (Phase A: 0.1% TFA H2O; Phase B: 0.1% TFA CH3CN) using gradient elution (0–5 min 20% B; 5–10 min 20%–80% B; 10–12 min 80% B; 12–15 min 80%–20% B) at a flow rate of 1.0 mL min^−1. The radiolabeling yield was 59.9 ± 3.9% (non‐decay corrected, n = 10) and the radiochemical purity was over 95%. […] At 1, 2, and 4 h time points, 10 µL aliquot was analyzed by radio‐HPLC to assess the radiochemical purity.
Supplemental Figure 2. […] (A) Saturation binding assay […]
assay of DX600. (C) hACE2 expression specifically determine the accumulation of 64Cu-HZ20 over HEK293-hACE2 and HEK293-WT cells for 2 h incubation at 37 °C. (D) Stability analysis

ACE2 [6] = target: T1, ACE2; settings: in vivo
Target sequence in this assay (Q9BYF1 18-805): as above

in vivo = settings: female, athymic nude, mouse, HepG2 xenograft tumor, iv, 3.7 MBq, total radioactivity
Experimental: 5 × 10^6 of HepG2 cells were inoculated into the right front shoulder region of the mice to build the xenograft tumor model with ACE2 expression. When the tumor volumes were estimated to be 450–800 mm^3, the mice were used for the studies. […] Scans were performed at 60, 120, and 180 min after administration. […] Subsequently, animals were scanned at 60, 120, and 180 min post‐injection. Regions of interest were defined over tumor, heart, liver, lung, kidney, and muscle and uptake computed relative to the injected activity.
Tumor, heart, liver, lung, kidney and muscle were selected for analysis.

ACE2 [7] = target: T1, ACE2; settings: PET/MR 2 h after injection, female volunteers #005 and #012
Target sequence in this assay (Q9BYF1 18-805): as above

DX600 (peptide)
Kd (ACE2 [1]): 98.7 nM

DOTA-DX600 (peptide)
Kd (ACE2 [1]): 100 nM

CC(C)C[C@@H]1NC(=O)[C@@H]2CCCN2C(=O)[C@H](CO)NC(=O)[C@@H](NC(=O)[C@H](Cc2c[nH]cn2)NC(=O)[C@H](CO)NC(=O)[C@H](Cc2ccc(O)cc2)NC(=O)[C@H](CC(=O)O)NC(=O)CNC(=O)CN2CCN(CC(=O)O)CCN(CC(=O)O)CCN(CC(=O)O)CC2)CSSC[C@@H](C(=O)N[C@H](C(=O)N[C@@H](Cc2ccc(O)cc2)C(=O)N2CCC[C@H]2C(=O)N[C@@H](CC(=O)O)C(=O)N2CCC[C@H]2C(=O)N[C@@H](CCC(=O)O)C(=O)NCC(=O)NCC(=O)NCC(N)=O)[C@@H](C)O)NC(=O)[C@H](CCCCN)NC(=O)[C@H](Cc2c[nH]c3ccccc23)NC(=O)[C@H](Cc2c[nH]c3ccccc23)NC(=O)[C@@H]2CCCN2C(=O)[C@H](Cc2ccc(O)cc2)NC(=O)[C@H](Cc2ccc(O)cc2)NC(=O)[C@H](CCCNC(=N)N)NC1=O [HZ20]
Kd (ACE2 [2]): 100 nM

CC(=O)NCC(=O)N[C@@H](CC(=O)O)C(=O)N[C@@H](Cc1ccc(O)cc1)C(=O)N[C@@H](CO)C(=O)N[C@@H](Cc1cnc[nH]1)C(=O)N[C@H]1CSSC[C@@H](C(=O)N[C@H](C(=O)N[C@@H](Cc2ccc(O)cc2)C(=O)N2CCC[C@H]2C(=O)N[C@@H](CC(=O)O)C(=O)N2CCC[C@H]2C(=O)N[C@@H](CCC(=O)O)C(=O)NCC(=O)NCC(=O)NCC(N)=O)[C@@H](C)O)NC(=O)[C@H](CCCCN)NC(=O)[C@H](Cc2c[nH]c3ccccc23)NC(=O)[C@H](Cc2c[nH]c3ccccc23)NC(=O)[C@@H]2CCCN2C(=O)[C@H](Cc2ccc(O)cc2)NC(=O)[C@H](Cc2ccc(O)cc2)NC(=O)[C@H](CCCNC(=N)N)NC(=O)[C@H](CC(C)C)NC(=O)[C@@H]2CCCN2C(=O)[C@H](CO)NC1=O [DX600]
body weight at start ([3]; mice 4 weeks old, n = 5, injections day 0, 4, 11, 18, 25): 26.5 ± 5.2 g
body weight at end ([3]; mice, n = 5, 25 days, injections day 0, 4, 11, 18, 25): 41.2 ± 3.1 g
body weight versus saline control group ([3]; mice, n = 5 per group, 25 days): no significant difference
stability to ACE2 catalyzed hydrolysis (ACE2 [4]): stable

CC(C)C[C@@H]1NC(=O)[C@@H]2CCCN2C(=O)[C@H](CO)NC(=O)[C@@H](NC(=O)[C@H](Cc2c[nH]cn2)NC(=O)[C@H](CO)NC(=O)[C@H](Cc2ccc(O)cc2)NC(=O)[C@H](CC(=O)O)NC(=O)CNC(=O)CN2CCN(CC(=O)O)CCN(CC(=O)O)CCN(CC(=O)O)CC2)CSSC[C@@H](C(=O)N[C@H](C(=O)N[C@@H](Cc2ccc(O)cc2)C(=O)N2CCC[C@H]2C(=O)N[C@@H](CC(=O)O)C(=O)N2CCC[C@H]2C(=O)N[C@@H](CCC(=O)O)C(=O)NCC(=O)NCC(=O)NCC(N)=O)[C@@H](C)O)NC(=O)[C@H](CCCCN)NC(=O)[C@H](Cc2c[nH]c3ccccc23)NC(=O)[C@H](Cc2c[nH]c3ccccc23)NC(=O)[C@@H]2CCCN2C(=O)[C@H](Cc2ccc(O)cc2)NC(=O)[C@H](Cc2ccc(O)cc2)NC(=O)[C@H](CCCNC(=N)N)NC1=O [^68Ga‐HZ20, metal not drawn]
SUV at 1.5 h (clinical; female, SUVmax breast): 1.78 ± 0.17 SUV
SUV at 1.5 h (clinical; female, SUVmax breast, old group): 1.35 ± 0.22 SUV
SUV at 1.5 h (clinical; female, SUVmax breast, young group): 2.21 ± 0.25 SUV
SUV (clinical; female, SUVmax corpus luteum): 7.35 SUV
SUV at 1.5 h (clinical; female, SUVmax gallbladder): 2.76 SUV
SUV at 1.5 h (clinical; female, SUVmax ovary): 2.12 ± 1.42 SUV
SUV at 1.5 h (clinical; female, SUVmax renal cortex): 38.8 SUV
SUV at 1.5 h (clinical; female, SUVmax uterus): 2.41 ± 0.34 SUV
SUV at 1.5 h (clinical; SUVmax conjunctiva): 1.71 ± 0.08 SUV
SUV at 1.5 h (clinical; SUVmax esophagus): 1.63 ± 0.11 SUV
SUV at 1.5 h (clinical; SUVmax liver): 1.59 ± 0.14 SUV
SUV at 1.5 h (clinical; SUVmax nasal): 1.91 ± 0.18 SUV
SUV at 1.5 h (clinical; SUVmax pancreas): 1.63 ± 0.24 SUV
SUV at 1.5 h (clinical; SUVmax rectum): 1.46 ± 0.13 SUV
SUV at 1.5 h (clinical; SUVmax renal cortex (right kidney in Figure 7)): 25.7 ± 1.39 SUV
SUV at 1.5 h (clinical; SUVmax renal cortex, left kidney): 22.2 ± 1.78 SUV
SUV at 1.5 h (clinical; SUVmax renal cortex, right kidney, person recovered from COVID-19, 7 months post infection, 90 min): 18.4 SUV
SUV at 1.5 h (clinical; SUVmax renal medulla): 18.3 ± 1.42 SUV
SUV at 1.5 h (clinical; male, SUVmax gallbladder): 0.75 SUV
SUV at 1.5 h (clinical; male, SUVmax gallbladder, male recovered from COVID-19, 90 min): 4.32 SUV
SUV at 1.5 h (clinical; male, SUVmax left testis): 4.58 ± 0.4 SUV
SUV at 1.5 h (clinical; male, SUVmax left testis, male recovered from COVID-19, 90 min): 8.65 SUV
SUV at 1.5 h (clinical; male, SUVmax penis): 2 ± 0.25 SUV
SUV at 1.5 h (clinical; male, SUVmax renal cortex): 23.9 SUV
SUV at 1.5 h (clinical; male, SUVmax renal cortex, left kidney, male recovered from COVID-19, 90 min): 11.6 SUV
SUV at 1.5 h (clinical; male, SUVmax right testis): 4.51 ± 0.54 SUV
SUV at 1.5 h (clinical; male, SUVmax right testis, male recovered from COVID-19, 90 min): 8.79 SUV
SUV at 1.5 h (clinical; male, SUVmax small intestine): 0.48 SUV
SUV at 1.5 h (clinical; male, SUVmax testis): 4.46 ± 0.3 SUV
in vitro stability (radiochemical purity by radio-HPLC) [5]: stable
SUVmax breast (ACE2 [6]): 2.72
SUVmax testis (ACE2 [6]): 5.57
blood-brain barrier penetration (ACE2 [6]): poor
SUV at 2 h (in vivo): 0.099 ± 0.0065 SUV
tissue uptake per volume at 2 h (in vivo): 0.56 %ID/mL
uptake in immature follicles (ACE2 [7]): no uptake
uptake in stroma of ovary (ACE2 [7]): slight uptake
